This test addresses ATXN2 (UniProt Q99700 1-1313, limits assumed). As to the kind of experiment: fluorescence microscopy, co-localization in cells.

Sequence of ATXN2 (Q99700 whole entry): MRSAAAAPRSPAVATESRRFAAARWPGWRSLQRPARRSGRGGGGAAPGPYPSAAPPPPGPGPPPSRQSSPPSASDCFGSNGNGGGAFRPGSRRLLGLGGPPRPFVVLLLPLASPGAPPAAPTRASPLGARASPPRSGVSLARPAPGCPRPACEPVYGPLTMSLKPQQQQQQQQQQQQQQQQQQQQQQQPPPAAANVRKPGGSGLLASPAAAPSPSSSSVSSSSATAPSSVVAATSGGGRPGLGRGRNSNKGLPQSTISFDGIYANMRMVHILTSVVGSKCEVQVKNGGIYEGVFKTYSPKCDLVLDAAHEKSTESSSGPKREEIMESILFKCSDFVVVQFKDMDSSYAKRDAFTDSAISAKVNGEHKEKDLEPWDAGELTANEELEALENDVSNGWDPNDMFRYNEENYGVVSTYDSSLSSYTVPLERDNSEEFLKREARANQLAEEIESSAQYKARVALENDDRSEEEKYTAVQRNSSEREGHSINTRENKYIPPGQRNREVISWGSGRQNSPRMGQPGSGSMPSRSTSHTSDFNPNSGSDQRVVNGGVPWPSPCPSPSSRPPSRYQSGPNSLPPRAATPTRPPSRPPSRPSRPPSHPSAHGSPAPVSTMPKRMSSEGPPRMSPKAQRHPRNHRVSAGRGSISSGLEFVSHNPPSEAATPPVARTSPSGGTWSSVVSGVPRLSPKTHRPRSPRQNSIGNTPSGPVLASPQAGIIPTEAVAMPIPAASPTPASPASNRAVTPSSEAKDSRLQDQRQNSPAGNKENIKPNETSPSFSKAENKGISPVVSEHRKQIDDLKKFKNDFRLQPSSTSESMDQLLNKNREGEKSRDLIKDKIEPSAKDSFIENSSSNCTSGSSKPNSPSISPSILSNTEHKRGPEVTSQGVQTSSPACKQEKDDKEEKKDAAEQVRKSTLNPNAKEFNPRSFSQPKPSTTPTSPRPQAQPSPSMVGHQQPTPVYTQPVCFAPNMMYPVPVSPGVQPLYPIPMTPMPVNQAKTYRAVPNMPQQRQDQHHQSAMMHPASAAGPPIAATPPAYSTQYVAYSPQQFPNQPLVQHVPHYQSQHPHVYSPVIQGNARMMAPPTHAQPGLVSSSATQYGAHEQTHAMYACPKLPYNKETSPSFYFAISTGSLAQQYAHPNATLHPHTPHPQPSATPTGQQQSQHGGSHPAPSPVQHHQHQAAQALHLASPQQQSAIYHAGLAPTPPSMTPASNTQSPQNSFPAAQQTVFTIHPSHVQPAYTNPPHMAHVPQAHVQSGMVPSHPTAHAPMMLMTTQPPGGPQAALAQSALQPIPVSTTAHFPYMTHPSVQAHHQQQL

B1: GFP-PopTag (other)
chain: GGGGSGGGGSGGGGSGGGGSEVAEQLVGVSAASAAASAFGSLSSALLMPKDGRTLEDVVRELLRPLLKEWLDQNLPRIVETKVEEEVQRISRGRGA
notes: also called GFP-PopTag condensates; not shown: GFP; constructs subcloned into pcDNA3.1+N-eGFP
As to B1, the binding result was “no binding”.

For the origin of these results see patent publication US20230044825A1 (CZ BIOHUB SF, published 2023).
